We go through 5 molecules from patent US20250000946A1 (WUXI BIOLOGICS IRELAND, published 2025).

Residue numbers refer to the chain shown, from its start. Names may count otherwise. Like-named read-outs stand apart in the source and are kept apart here.

For assay [1], the target named is T1, Human IL-2Rβ/γ (intermediate affinity IL-2 receptor) (human, UniProt P14784 27-551; P31785 23-369).
T1 sequence (looked up) 1: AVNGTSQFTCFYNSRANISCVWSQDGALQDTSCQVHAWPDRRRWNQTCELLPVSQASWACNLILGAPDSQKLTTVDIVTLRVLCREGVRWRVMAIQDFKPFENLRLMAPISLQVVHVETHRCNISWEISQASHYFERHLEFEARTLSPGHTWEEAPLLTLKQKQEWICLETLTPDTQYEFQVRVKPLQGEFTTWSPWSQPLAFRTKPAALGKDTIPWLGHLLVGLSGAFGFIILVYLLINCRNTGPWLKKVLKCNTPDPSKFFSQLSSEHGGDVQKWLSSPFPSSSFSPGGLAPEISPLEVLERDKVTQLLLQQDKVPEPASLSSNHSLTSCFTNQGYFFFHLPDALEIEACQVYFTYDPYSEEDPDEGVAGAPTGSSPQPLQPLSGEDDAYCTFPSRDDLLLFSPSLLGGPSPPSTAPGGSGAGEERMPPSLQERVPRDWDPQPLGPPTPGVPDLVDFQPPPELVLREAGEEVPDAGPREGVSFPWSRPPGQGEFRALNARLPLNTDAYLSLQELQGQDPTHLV
T1 sequence (looked up) 2: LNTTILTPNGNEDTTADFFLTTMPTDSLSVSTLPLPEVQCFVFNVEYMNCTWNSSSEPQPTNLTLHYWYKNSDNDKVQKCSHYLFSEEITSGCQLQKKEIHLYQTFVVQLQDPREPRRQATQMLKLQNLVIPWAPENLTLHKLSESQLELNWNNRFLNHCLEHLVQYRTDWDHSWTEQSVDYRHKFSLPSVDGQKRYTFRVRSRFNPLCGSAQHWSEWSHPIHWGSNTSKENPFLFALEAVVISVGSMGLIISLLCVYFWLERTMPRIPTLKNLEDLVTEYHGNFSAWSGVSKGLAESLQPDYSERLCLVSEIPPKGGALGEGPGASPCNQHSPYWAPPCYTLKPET
As to the kind of experiment: cell-based or functional assay.

For assay [2], the target named is T2, Human IL-2Rα/β/γ complex (high affinity IL-2 receptor) (human, UniProt P01589 22-272; P14784 27-551; P31785 23-369).
T2 sequence (looked up) 1: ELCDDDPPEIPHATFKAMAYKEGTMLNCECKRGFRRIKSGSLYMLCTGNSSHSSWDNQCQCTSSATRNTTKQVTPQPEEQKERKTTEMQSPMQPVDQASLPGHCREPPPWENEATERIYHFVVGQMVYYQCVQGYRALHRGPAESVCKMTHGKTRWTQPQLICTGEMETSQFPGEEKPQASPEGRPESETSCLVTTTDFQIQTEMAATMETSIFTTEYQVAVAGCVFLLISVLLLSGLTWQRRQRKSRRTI
T2 sequence (looked up) 2: T1 sequence (looked up) 1
T2 sequence (looked up) 3: T1 sequence (looked up) 2
As to the kind of experiment: cell-based or functional assay.

Assay [3] deals with T2, Human IL-2Rα/β/γ complex (high affinity …). Description: FACS, NK92 cells. In short, it runs like this: (§1)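 Readout is median fluorescence intensity by FACS after PE-anti-human Fc detection of IL-2/Fc fusion proteins bound to cells. Binding was done for 30 min at 4° C. to avoid internalization, with secondary staining for a further 30 min at 4° C.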
The target in assay [4] is T1, Human IL-2Rβ/γ (intermediate affinity …). As to the kind of experiment: FACS, HH cells. How it is done:
(§2) Human cutaneous T cell lymphoma HH cells, malignant non-Hodgkin's lymphoma NK92 cells and cutaneous T cell lymphoma MJ20 cells were used for binding assay. They both constitutively express IL-2Rβ (CD122) and […] (CD132), and NK92 and MJ20 also expresses IL-2Rα (CD25). HH, NK92 and MJ20 cells were cultured following ATCC guidance, then transferred to a 96-plate for binding analysis. Cells were incubated with IL-2/Fc fusion proteins at the indicated concentrations for 30 min at 4° C. to avoid internalization. Binding was detected by 2nd antibody of PE-anti-human Fc at 4° C. for another 30 min. The median fluorescence intensity (MFI) on HH and NK92 cells was measured using FACS.

The target is the same in assay [5]. Description: FACS, HH cells. In short, it runs like this:
as §1
This is another data set of the same source. (In general: In flow cytometry, cells or beads pass a laser one at a time.)

For assay [6] the target is unchanged. Description: FACS, HH cells; EC50 fold vs T2U0.E44-1. How it is done:
as §2

The target of assay [7] is T2, Human IL-2Rα/β/γ complex (high affinity …). As to the kind of experiment: FACS, NK92 cells; EC50 fold vs T2U0.E44-1. In short, it runs like this:
as §1

The target of assay [8] is T1, Human IL-2Rβ/γ (intermediate affinity …). Description: FACS, HH cells; EC50 fold vs T2U0.E44-1. An outline of the steps:
as §1
The source holds these as a separate data set.

Assay [9] has the same target. Description: cell-based or functional assay. The source holds these as a separate data set.
In assay [10] the target is T2, Human IL-2Rα/β/γ complex (high affinity …). Description: cell-based or functional assay. This is another data set of the same source.
Assay [11] has as its target T3, W3XX115-T2U0.E44-6.uIgG4V322 (human, UniProt P60568 21-149).
T3 construct: IL-2 del STLT; E44 format, IgG4 FALA; IL-2 part tied by the design 'Del STLT'; not shown: IgG4 hinge-Fc with FALA (uIgG4V322), no linker
As to the kind of experiment: SPR (Biacore 8K): variant pre-mixed 1:1 with human IL-2Rβ ECD (W369-hPro2.ECD.His), injected over immobilised human IL-2Rγc [panel 2 of the upper row].

B1: W3XX115-T3U0.E44-1.uIgG4V1 (Fc fusion)
chain: APTSSSTKKTQLQLEHLLLDLQMILNGINNYKNPKLTRMLTAKFAMPKKATELKHLQCLEEELKPLEEVLNGAQSKNFHLRPRDLISNINVIVLELKGSETTFMCEYADETATIVEFLNRWITFCQSIISTLTESKYGPPCPPCPAPEFLGGPSVFLFPPKPKDTLMISRTPEVTCVVVDVSQEDPEVQFNWYVDGVEVHNAKTKPREEQFNSTYRVVSVLTVLHQDWLNGKEYKCKVSNKGLPSSIEKTISKAKGQPREPQVYTLPPCQEEMTKNQVSLWCLVKGFYPSDIAVEWESNGQPENNYKTTPPVLDSDGSFFLYSRLTVDKSRWQEGNVFSCSVMHEALHNHYTQKSLSLSLG
heavy: EIQLQQSGPELVKPGASVKVSCKASGYSFTDYNMYWVKQSHGESLEWIGYIDPYNGGTRYNQKFKGKATLTVDKSSSTAFMHLNSLTSEDSAVYYCARNGHWDGAWFAYWGQGTLVTVSAASTKGPSVFPLAPCSRSTSESTAALGCLVKDYFPEPVTVSWNSGALTSGVHTFPAVLQSSGLYSLSSVVTVPSSSLGTKTYTCNVDHKPSNTKVDKRVESKYGPPCPPCPAPEFLGGPSVFLFPPKPKDTLMISRTPEVTCVVVDVSQEDPEVQFNWYVDGVEVHNAKTKPREEQFNSTYRVVSVLTVLHQDWLNGKEYKCKVSNKGLPSSIEKTISKAKGQPREPQVCTLPPSQEEMTKNQVSLSCAVKGFYPSDIAVEWESNGQPENNYKTTPPVLDSDGSFFLVSRLTVDKSRWQEGNVFSCSVMHEALHNHYTQKSLSLSLG
light: DIQMNQSPSSLSASLGDTITITCHASQNINVWLSWYQQKPGNIPKLLIYKASNLHTGVPSRFSGSRSGTGFTLTISSLQPEDIATYYCHQGQSYPFTFGSGTKLEIKRTVAAPSVFIFPPSDEQLKSGTASVVCLLNNFYPREAKVQWKVDNALQSGNSQESVTEQDSKDSTYSLSSTLTLSKADYEKHKVYACEVTHQGLSSPVTKSFNRGEC
notes: E44 format, IgG4
A word on the EC50: it is the concentration that produces a half-maximal response. Read a high EC50 as lower potency in that assay. With B1, in assay [1], the “Human CD8+ T Potency EC50 (STAT5 phosphorylation)” value (shortened to “Human CD8+ T Potency EC50”) was determined as 7.14 nM and the “Human CD8+ T Potency reduction” value was 0.69 fold. Moreover, in assay [2], the “Human Treg Potency EC50 (STAT5 phosphorylation)” value (from here on “Human Treg Potency EC50”) amounted to 3.52 nM and the “Human Treg Potency reduction” value was 296 fold. Further, the EC50 in assay [3] worked out at 145 nM. The same molecule yielded a concentration giving a half-maximal response (EC50) in assay [4] of 24.5 nM. The molecule further displayed an EC50 in assay [5] of 72.9 nM. The same molecule came in with an Affinity reduction in assay [6] of 1 fold. For the same molecule, the Affinity reduction in assay [7] came out at 20.7 fold. Also, the Affinity reduction in assay [8] worked out at 1 fold. Also, in assay [9], the “Potency in human CD8+ T EC50” value is 7.53 nM and the “Potency reduction (CD8+ T)” value was found to be 0.74 fold. Moreover, in [10], the “Potency in human Treg EC50” value was 2.48 nM and the “Potency reduction (Treg)” value worked out at 652 fold.

B2: W3XX115-T2U0.E44-20.uIgG4V1 (Fc fusion)
chain: APTSSSTKKTQLQLEHLLLDLQMILNGINNYKNPKLTWMLTFKFYMPKKATELKHLQCLEEELKPLEEVLNLAQSKNFHLRPRDLISNINVIVLELKGSETTFMCEYADETATIVEFLNRWITFCQSIIESKYGPPCPPCPAPEFLGGPSVFLFPPKPKDTLMISRTPEVTCVVVDVSQEDPEVQFNWYVDGVEVHNAKTKPREEQFNSTYRVVSVLTVLHQDWLNGKEYKCKVSNKGLPSSIEKTISKAKGQPREPQVYTLPPCQEEMTKNQVSLWCLVKGFYPSDIAVEWESNGQPENNYKTTPPVLDSDGSFFLYSRLTVDKSRWQEGNVFSCSVMHEALHNHYTQKSLSLSLG
heavy: B1 heavy
light: B1 light
notes: IL-2 del STLT and R38W; E44 format, IgG4
In the case of B2, in [1], the “Human CD8+ T Potency EC50” value worked out at 323 nM and the “Human CD8+ T Potency reduction” value was 31.4 fold. In [2], the “Human Treg Potency EC50” value was 2.06 nM and the “Human Treg Potency reduction” value turned out to be 173 fold. Also, the EC50 in assay [3] is 232 nM. In assay [4], this molecule showed an EC50 of 336 nM. The molecule also registered an Affinity reduction in assay [6] of 13.5 fold. The same molecule displayed an Affinity reduction in assay [7] of 33.1 fold.

B3: W3XX115-T2U0.E44-16.uIgG4V1 (Fc fusion)
chain: B2 chain with W38R, F42I
heavy: B1 heavy
light: B1 light
notes: IL-2 del STLT and F42I; E44 format, IgG4
Consider B3, for which, in [1], the “Human CD8+ T Potency EC50” value worked out at 251 nM and the “Human CD8+ T Potency reduction” value was determined as 24.4 fold. In assay [2], the “Human Treg Potency EC50” value was found to be 31.2 nM and the “Human Treg Potency reduction” value was 2620 fold. In assay [3], this molecule displayed an EC50 of approximately 310 nM. The EC50 in [4] was 472 nM. Also, the Affinity reduction in assay [6] was 18.9 fold. The molecule further yielded an Affinity reduction in assay [7] of 44.3 fold.

B4: W3XX115-T2U0.E44-19.uIgG4V1 (Fc fusion)
chain: B2 chain with W38R, F42M
heavy: B1 heavy
light: B1 light
notes: IL-2 del STLT and F42M; E44 format, IgG4
For B4, in assay [1], the “Human CD8+ T Potency EC50” value stood at 185 nM and the “Human CD8+ T Potency reduction” value was found to be 18 fold. For the same molecule, in assay [2], the “Human Treg Potency EC50” value was 0.53 nM and the “Human Treg Potency reduction” value was 44.5 fold. For the same molecule, in assay [3], the EC50 was found to be 522 nM. The molecule further returned an EC50 in assay [4] of 398 nM. The Affinity reduction in [6] turned out to be 15.9 fold. In addition, the Affinity reduction in [7] was determined as 74.6 fold.

B5: W369-hPro1.ECD.His, IL-2Rγ ECD (receptor)
chain: LNTTILTPNGNEDTTADFFLTTMPTDSLSVSTLPLPEVQCFVFNVEYMNCTWNSSSEPQPTNLTLHYWYKNSDNDKVQKCSHYLFSEEITSGCQLQKKEIHLYQTFVVQLQDPREPRRQATQMLKLQNLVIPWAPENLTLHKLSESQLELNWNNRFLNHCLEHLVQYRTDWDHSWTEQSVDYRHKFSLPSVDGQKRYTFRVRSRFNPLCGSAQHWSEWSHPIHWGSNTSKENLEGGGGSGGGGHHHHHH
notes: Entry includes linker and C-terminal 6xHis tag; also called IL-2Rγc; CD132
With B5, in assay [11], the binding result is on record as “binds”.
